# In patent US20210214410A1 (Stanford University, published 2021):
# T1: human interleukin 13 receptor alpha 2 (IL-13Rα2), biotinylated (human, UniProt Q14627 27-343, limits assumed, biotinylated (site not stated))
# T1 construct: The methods give construct limits only for IL-13Rα1 and IL-4Rα1; For IL-13Rα2 they say only that the biotinylated receptor was captured on the SA chip; also called IL13RA2; CD213a2
# T1 sequence (looked up): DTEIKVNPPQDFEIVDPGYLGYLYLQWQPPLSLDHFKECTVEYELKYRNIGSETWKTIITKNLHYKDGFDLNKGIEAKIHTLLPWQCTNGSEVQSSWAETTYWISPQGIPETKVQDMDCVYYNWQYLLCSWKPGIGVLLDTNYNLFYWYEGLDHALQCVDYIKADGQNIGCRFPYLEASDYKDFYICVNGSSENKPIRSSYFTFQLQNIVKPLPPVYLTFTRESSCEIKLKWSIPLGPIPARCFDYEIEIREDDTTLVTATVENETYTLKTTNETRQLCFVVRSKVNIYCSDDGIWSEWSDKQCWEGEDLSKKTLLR
# Experiments:
# [1] = molecular target: human interleukin 13 receptor alpha 1 (IL-13Rα1), biotinylated ectodomain (human) (UniProt P78552); assay: SPR, kinetic fit
# [2] = molecular target: human interleukin 13 receptor alpha 1 (IL-13Rα1), biotinylated ectodomain (human) (UniProt P78552); assay: SPR (Biacore T100), biotinylated receptor on SA chip, 1:1 kinetic fit
# [3] = molecular target: T1, human interleukin 13 receptor alpha 2 …; assay: as above
# Experimental: (§1) Surface Plasmon Resonance. SPR experiments were conducted on a Biacore T100 instrument. Experiments used a Biacore SA sensor chip (GE Healthcare). Biotinylated IL-13Rα1 and IL-13Rα2 receptors were captured at a low density (100-200 RU) and kinetic runs were conducted at 40 μL/min. An unrelated biotinylated protein was immobilized as a reference surface for the SA sensor chip with matching RU to the experimental surface. All data was analyzed using the Biacore T100 evaluation software version 2.0 with a 1:1 Langmuir binding model. Serial dilutions of unbiotinylated IL-13 variants in the running buffer [1×HBS-P (GE Healthcare)+0.5% BSA] were flowed over the chip and IL-13Rα1/IL-13Rα2 were regenerated by using one 60 second injections of 7 mM glycine (pH 3.0).
# [4] = molecular target: human interleukin 13 receptor alpha 1 (IL-13Rα1), biotinylated ectodomain (human) (UniProt P78552); assay: SPR (Biacore T100), biotinylated receptor on SA chip, equilibrium KD
# [5] = molecular target: T1, human interleukin 13 receptor alpha 2 …; assay: SPR, kinetic fit
# Experimental: as §1
# [6] = molecular target: T1, human interleukin 13 receptor alpha 2 …; assay: SPR (Biacore T100), biotinylated receptor on SA chip, equilibrium KD
# Experimental: as §1
Molecule,Kd [2] [nM],koff [2] [s⁻¹],kon [2] [M⁻¹ s⁻¹],Kd [3] [nM],koff [3] [s⁻¹],kon [3] [M⁻¹ s⁻¹],Kd [4] [nM],other results
wild-type human IL-13 (from UniProt P35225 34-146) (ligand),4.38,0.022,5.21e+06,–,–,–,–,Kd [1]: 4.38 nM; koff [1]: 0.022 s⁻¹; kon [1]: 5.21e+06 M⁻¹ s⁻¹
"IL-13 variant C4 (L10V, K89R, L101N, K105E, R108T) (ligand, the first is used here; also called polypeptide C4) PGPVPPSTAVRELIEELVNITQNQKAPLCNGSMVWSINLTAGMYCAALESLINVSGCSAIEKTQRMLSGFCPHKVSAGQFSSLHVRDTRIEVAQFVKDLLNHLKELFTEGQFNHHHHHH",–,–,–,0.393,0.000764,1.94e+06,36000,–
"IL-13 variant C11 (IL-13Rα2-selective IL-13 superkine; L10H, R86T, D87G, T88R, R108K) (ligand, the first is used here; Made in insect Hi5 cells; also called polypeptide C11) PGPVPPSTAHRELIEELVNITQNQKAPLCNGSMVWSINLTAGMYCAALESLINVSGCSAIEKTQRMLSGFCPHKVSAGQFSSLHVTGRKIEVAQFVKDLLLHLKKLFKEGQFNHHHHHH",–,–,–,0.0001,9.18e-07,6.41e+06,1600,–
"IL-13 variant D7 (IL-13Rα2-selective IL-13 superkine; L10A, V18F, R86K, D87K, K89R, L101I, K104R, R108K) (ligand, the first is used here; also called polypeptide D7) PGPVPPSTAARELIEELFNITQNQKAPLCNGSMVWSINLTAGMYCAALESLINVSGCSAIEKTKRMLSGFCPHKVSAGQFPSLHVKKTRIEVAQFVKDLLIHLRKLFKEGQFNHHHHHH",–,–,–,0.003,5.37e-05,1.77e+07,4100,–
"A7 (ligand, also called IL-13 variant A7 (L10I, V18I, D87G, T88S, L101H, K104R, K105A)) cytokine: PGPVPPSTAIRELIEELINITQNQKAPLCNGSMVWSINLTAGMYCAALESLINVSGCSAIEKTQRMLSGFCPHKVSAGQFSSLHVRGSKIEVAQFVKDLLHHLRALFREGQFN",1.18,0.0034,2.9e+06,0.218,0.0041,1.8e+07,–,–
"C7 (ligand, also called IL-13 variant C7 (R11S, I14M, T88S, L101N, K105A, R108K)) cytokine: PGPVPPSTALSELMEELVNITQNQKAPLCNGSMVWSINLTAGMYCAALESLINVSGCSAIEKTQRMLSGFCPHKVSAGQFSSLHVRDSKIEVAQFVKDLLNHLKALFKEGQFN",–,–,–,0.272,0.00057,2.1e+06,35000,–
"C2 (ligand, also called IL-13 variant C2 (L10D, R11I, V18I, R86K, D87K, K89R, R108K)) cytokine: PGPVPPSTADIELIEELINITQNQKAPLCNGSMVWSINLTAGMYCAALESLINVSGCSAIEKTQRMLSGFCPHKVSAGQFSSLHVKKTRIEVAQFVKDLLLHLKKLFKEGQFN",–,–,–,0.025,0.00015,6.6e+06,4000,–
"A6 (ligand, also called IL-13 variant A6 (L10I, V18L, R86M, D87K, T88S, L101H, K104R, K105A)) cytokine: PGPVPPSTAIRELIEELLNITQNQKAPLCNGSMVWSINLTAGMYCAALESLINVSGCSAIEKTQRMLSGFCPHKVSAGQFSSLHVMKSKIEVAQFVKDLLHHLRALFREGQFN",1.9,0.0033,1.77e+06,0.267,0.0028,1.07e+07,–,–
"C12 (ligand, also called IL-13 variant C12 (L10H, R86M, T88S, K89R, L101N, K104R, K105A, R108K)) cytokine: PGPVPPSTAHRELIEELVNITQNQKAPLCNGSMVWSINLTAGMYCAALESLINVSGCSAIEKTQRMLSGFCPHKVSAGQFSSLHVMDSRIEVAQFVKDLLNHLRALFKEGQFN",–,–,–,0.053,0.000404,7.61e+06,15000,–
"C9 (ligand, also called IL-13 variant C9 (L10H, R11L, V18I, R86K, D87E, K89R, L101N, K105T, R108K)) cytokine: PGPVPPSTAHLELIEELINITQNQKAPLCNGSMVWSINLTAGMYCAALESLINVSGCSAIEKTQRMLSGFCPHKVSAGQFSSLHVKETRIEVAQFVKDLLNHLKTLFKEGQFN",–,–,–,0.259,0.000529,2.03e+06,31000,–
"IL-13dn (ligand, also called IL13dn (L10V, E12A, V18I, R65D, D87S, T88S, L101F, K104R, K105T)) cytokine: PGPVPPSTAVRALIEELINITQNQKAPLCNGSMVWSINLTAGMYCAALESLINVSGCSAIEKTQDMLSGFCPHKVSAGQFSSLHVRSSKIEVAQFVKDLLFHLRTLFREGQFN",–,–,–,–,–,–,–,Kd [1]: 0.084 nM; koff [1]: 0.0013 s⁻¹; kon [1]: 1.64e+07 M⁻¹ s⁻¹; Kd [5]: 0.391 nM; koff [5]: 0.006 s⁻¹; kon [5]: 1.62e+07 M⁻¹ s⁻¹
"B6 (ligand, the sheet prints K at position 89 (same as wild type); also called IL-13 variant B6 (L10T, V18I, D87G, T88S, L101Y, K104R, K105T)) cytokine: PGPVPPSTATRELIEELINITQNQKAPLCNGSMVWSINLTAGMYCAALESLINVSGCSAIEKTQRMLSGFCPHKVSAGQFSSLHVRGSKIEVAQFVKDLLYHLRTLFREGQFN",5.9,0.0082,1.4e+06,–,–,–,–,Kd [6]: 53 nM
"A8 (ligand, also called IL-13 variant A8 (L10I, V18I, D87S, T88S, K89R, L101H, K104R, K105T)) cytokine: PGPVPPSTAIRELIEELINITQNQKAPLCNGSMVWSINLTAGMYCAALESLINVSGCSAIEKTQRMLSGFCPHKVSAGQFSSLHVRSSRIEVAQFVKDLLHHLRTLFREGQFN",2.06,0.0033,1.64e+06,0.263,0.0026,1.01e+07,–,–
"C10 (ligand, also called IL-13 variant C10 (L10H, R11L, V18I, R86M, K89R, R108K)) cytokine: PGPVPPSTAHLELIEELINITQNQKAPLCNGSMVWSINLTAGMYCAALESLINVSGCSAIEKTQRMLSGFCPHKVSAGQFSSLHVMDTRIEVAQFVKDLLLHLKKLFKEGQFN",–,–,–,5,0.0061,1.19e+06,264,–
"B2 (ligand, also called IL-13 variant B2 (V18I, R86T, D87G, T88S, L101Y, K104R, K105A)) cytokine: PGPVPPSTALRELIEELINITQNQKAPLCNGSMVWSINLTAGMYCAALESLINVSGCSAIEKTQRMLSGFCPHKVSAGQFSSLHVTGSKIEVAQFVKDLLYHLRALFREGQFN",0.275,0.0017,6.3e+06,1.5,0.01,7.8e+06,–,–
"A5 (ligand, also called IL-13 variant A5 (R11I, V18I, R86K, D87G, T88S, L101H, K104R, K105A, F107M)) cytokine: PGPVPPSTALIELIEELINITQNQKAPLCNGSMVWSINLTAGMYCAALESLINVSGCSAIEKTQRMLSGFCPHKVSAGQFSSLHVKGSKIEVAQFVKDLLHHLRALMREGQFN",2.94,0.0082,2.8e+06,–,–,–,–,Kd [6]: 50 nM
"C3 (ligand, also called IL-13 variant C3 (L10A, R86T, D87G, T88K, K89R, L101N, K104R, K105A, R108K)) cytokine: PGPVPPSTAARELIEELVNITQNQKAPLCNGSMVWSINLTAGMYCAALESLINVSGCSAIEKTQRMLSGFCPHKVSAGQFSSLHVTGKRIEVAQFVKDLLNHLRALFKEGQFN",–,–,–,0.379,0.002,6e+06,16000,–
"A11 (ligand, also called IL-13 variant A11 (L10V, V18I, D87S, T88S, L101F, K104R, K105T)) cytokine: PGPVPPSTAVRELIEELINITQNQKAPLCNGSMVWSINLTAGMYCAALESLINVSGCSAIEKTQRMLSGFCPHKVSAGQFSSLHVRSSKIEVAQFVKDLLFHLRTLFREGQFN",0.084,0.0013,1.64e+07,0.391,0.006,1.62e+07,–,–
"IL-13 variant B4 (R11S, V18I, R86K, D87G, T88S, K89M, L101Y, K104R, K105T) (ligand, also called polypeptide B4) PGPVPPSTALSELIEELINITQNQKAPLCNGSMVWSINPTAGMYCAALESLINVSGCSAIEKTQRMLSGFCPHKVAAGQFSSLHDKGSMIEVAQFVKDLLYHLRTLFREGQFNHHHHHH",18,0.024,1.36e+06,–,–,–,–,Kd [6]: 108 nM
